Experimental data reported in PMC12607630.
Where “and” joins values, the source holds several entries; their conditions need not be identical. Identical values can stand only once.

Biological target: 6×His-SUMO-FtsZ 370-383 (Escherichia coli) (UniProt P0A9A6)
Assay: BLI; 6×His-SUMO fusions of FtsZ or its parts, or SUMO alone (0.5 µM), held on Ni-NTA biosensors, untagged ZapC in solution; Octet-Red96, 30°C, 1× Pol buffer (50 mM HEPES-NaOH pH 6.8, 50 mM KCl, 10 mM MgCl2); apparent Kd from the signal at the end of association against concentration, one-site fit; three repeats with mean (X) and SD

Kd: 10.2 µM and 8.06 µM and 9.89 µM
Substance: ZapC (untagged) (from UniProt P75862 1-180) (natural protein)
